# Experimental data: patent US20210324359A1, “USE OF GRAM-NEGATIVE LYSIN-ANTIMICROBIAL PEPTIDE (AMP) POLYPEPTIDE CONSTRUCTS IN TREATING ENDOCARDITIS” (priority 2020, published 2021)
# “Also recorded” adds a separate entry of the source. Like-named read-outs stand apart in the source and are kept apart here.
# Legend:
# [1] = test system: P. aeruginosa PA20; assay: MIC of GN370 and meropenem against the infecting strain; format: cell-based, Pseudomonas aeruginosa
# [2] = test system: outer membrane of P. aeruginosa (CFS 1292); assay: N-phenyl-1-napthylamine (NPN) uptake assay, outer membrane destabilization (Table 15); format: cell-based, Pseudomonas aeruginosa; details: NPN fluorescence, buffer = 100, lysin 100 μg/well
# Procedure: The ability of gram-negative lysins to destabilize the outer membrane of P. aeruginosa was evaluated through the use of an N-phenyl-1-napthylamine (NPN) uptake assay. […] NPN was added to a final concentration of […]. […] Changes in fluorescence were recorded (excitation 1=350 nm; emission 1=420 nm) over two hours.
# [3] = test system: P. aeruginosa isolate CFS 1558 (PA20); format: in vivo; details: for Log10 CFU/g of vegetation: rabbit lung
# Procedure: A rabbit pulmonary model was used to assess the efficacy of the GN370 lysin alone and in combination with an antibiotic (meropenem). Initially, rabbits were infected intratracheally with P. aeruginosa isolate CFS 1558 (PA20) (3×10^9 CFU). Treatment commenced 6 hours post-infection.
# [4] = test system: Pseudomonas aeruginosa strain CFS-1292 (meropenem resistant); details: strain CFS-1292; no added cations
# Procedure: The activity of selected GN lysins and constructs in the presence of divalent cations was evaluated, and the impact of divalent cations at physiological concentrations was examined in the MIC assay format.
# [5] = test system: P. aeruginosa PA20 recovered from rabbit lung homogenates; format: cell-based, Pseudomonas aeruginosa; details: for number of isolates with GN370 MIC 1 μg/mL / number of isolates with GN370 MIC 2 μg/mL: n=48
# [6] = test system: P. aeruginosa strains; assay: Checkerboard synergy with meropenem in 25% CAA and […] human serum (Table 16); format: cell-based, Pseudomonas aeruginosa; details: for FICI value (Run #1), with meropenem / FICI value (Run #2), with meropenem: 25% CAA and […] human serum
# [7] = test system: P. aeruginosa strain PA453; assay: Time-kill assay of GN370 in animal blood (Table 34); format: cell-based, Pseudomonas aeruginosa; details: Dog blood, limit of detection 1.6
# Source text: The results are shown below in Table 34, wherein survival is reported as Log10 CFU/mL and wherein the limit of detection was 1.6 Log10 CFU/mL.
# [8] = isolates from GN370 (3 mg/kg) + Meropenem (20 mg/kg) group
# [9] = isolates from GN370 (30 mg/kg) + Meropenem (20 mg/kg) group
# [10] = isolates from GN370 (30 mg/kg) group
# [11] = isolates from Vehicle control group
molecule,measurement,setting,value
"GN370: lysin-AMP construct: MIDR, FIRL and NPTH moieties N-terminal to GN202 lysin (SEQ ID NO: 44) (protein) MIDRFIRLNPTHGPRRPRRPGRRAPVRTSQRGIDLIKSFEGLRLSAYQDSVGVWTIGYGTTRGVTRYMTITVEQAERMLSNDIQRFEPELDRLAKVPLNQNQWDALMSFVYNLGAANLASSTLLDLLNKGDYQGAADQFPHWVNAGGKRLDGLVKRRAAERALFLEPLS",MIC of P. aeruginosa PA20,[1],2 µg/mL
same,MIC against P. aeruginosa,[1]; GN370 value in rabbit serum,2 µg/mL
same,% RFU,[2]; 5 minutes,205 % RFU
same,% RFU,[2]; 10 minutes,217 % RFU
same,% RFU,[2]; 20 minutes,213 % RFU
same,% RFU,[2]; 40 minutes,198 % RFU
same,% RFU,[2]; 60 minutes,193 % RFU
same,% RFU,[2]; 100 minutes,184 % RFU
same,"Bacterial burden, Kidneys",[3]; GN370 3 mg/kg,5.06 ± 1.05 log10 CFU/g
same,"Bacterial burden, Lung 1",[3]; GN370 3 mg/kg,6.28 ± 1.12 log10 CFU/g
same,"Bacterial burden, Lung 2",[3]; GN370 3 mg/kg,6.43 ± 1.01 log10 CFU/g
same,"Bacterial burden, Spleen",[3]; GN370 3 mg/kg,5.23 ± 1.25 log10 CFU/g
same,"Bacterial burden, Kidneys",[3]; GN370 10 mg/kg,3.46 ± 0.78 log10 CFU/g
same,"Bacterial burden, Lung 1",[3]; GN370 10 mg/kg,6.63 ± 1.00 log10 CFU/g
same,"Bacterial burden, Lung 2",[3]; GN370 10 mg/kg,5.53 ± 1.75 log10 CFU/g
same,"Bacterial burden, Spleen",[3]; GN370 10 mg/kg,3.76 ± 0.44 log10 CFU/g
same,reduction in CFUs in the lungs,"[3]; GN370 alone, increasing concentrations, compared to pretreatment control",4 log10
same,"additional decrease of bacterial density in lung, kidney and spleen","[3]; GN-370 (10 mg/kg) in addition to meropenem, compared to meropenem or GN-370 alone",2 log10 CFU/g
same,decrease of mean bacterial density in lungs,"[3]; agent alone, compared to the starting CFU and the vehicle control group",about 2 log10 CFU/g
same,Log10 CFU/g of vegetation,[3]; GN370 3 mg/kg,6.52 ± 1.01 Log10 CFU/g
same,Log10 CFU/g of vegetation,[3]; GN370 10 mg/kg,6.25 ± 1.35 Log10 CFU/g
same,Log10 CFU/g of vegetation,[3]; GN370 30 mg/kg,7.88 ± 0.50 Log10 CFU/g
same,tolerability in infected rabbits,[3]; tested doses,well tolerated at the tested doses
same,survival until the end of the study,[3]; treated infected rabbits,all treated infected animals survived until the end of the study
same,MIC in 25% CAA,[4],4 µg/mL
same,ex vivo resistance / increase in MIC of isolates recovered from rabbit lung,[5]; all treatment groups of the rabbit pulmonary model,not observed; also recorded: no increase in MIC
same,number of isolates with GN370 MIC 1 μg/mL,[5]; [8],34
same,number of isolates with GN370 MIC 2 μg/mL,[5]; [8],14
same,number of isolates with GN370 MIC 2 μg/mL,[5]; isolates from GN370 (3 mg/kg) group,16
same,number of isolates with GN370 MIC 1 μg/mL,[5]; isolates from GN370 (10 mg/kg) + Meropenem (20 mg/kg) group,48
same,number of isolates with GN370 MIC 2 μg/mL,[5]; isolates from GN370 (10 mg/kg) group,16
same,number of isolates with GN370 MIC 1 μg/mL,[5]; [9],35
same,number of isolates with GN370 MIC 2 μg/mL,[5]; [9],13
same,number of isolates with GN370 MIC 1 μg/mL,[5]; [10],16
same,number of isolates with GN370 MIC 2 μg/mL,[5]; [10],32
same,number of isolates with GN370 MIC 2 μg/mL,[5]; isolates from Meropenem (20 mg/kg) group,16
same,number of isolates with GN370 MIC 2 μg/mL,[5]; isolates from Pre-treatment control group,48
same,number of isolates with GN370 MIC 1 μg/mL,[5]; [11],13
same,number of isolates with GN370 MIC 2 μg/mL,[5]; [11],35
same,synergy with meropenem,[6]; FICI less than or equal to 0.5 = potent synergy,exhibited synergy with meropenem
same,"FICI value (Run #1), with meropenem",[6]; strain CFS 1292,0.1875
same,"FICI value (Run #2), with meropenem",[6]; strain CFS 1292,0.219
same,"FICI value (Run #1), with meropenem",[6]; strain CFS 1557 (PA19),0.1875
same,"FICI value (Run #2), with meropenem",[6]; strain CFS 1557 (PA19),0.240
same,"FICI value (Run #1), with meropenem",[6]; strain CFS 1558 (PA20),0.09375
same,"FICI value (Run #2), with meropenem",[6]; strain CFS 1558 (PA20),0.109
same,"FICI value (Run #2), with meropenem",[6]; strain CFS 1559 (PA21),0.438
same,"FICI value (Run #2), with meropenem",[6]; strain CFS 1560 (PA22),0.198
same,"FICI value (Run #2), with meropenem",[6]; strain CFS 1561 (PA23),0.240
same,"FICI value (Run #2), with meropenem",[6]; strain CFS 1562 (PA24),0.240
same,"FICI value (Run #2), with meropenem",[6]; strain CFS 1766 (ATCC 27853),0.156
same,Log10 CFU/mL of P. aeruginosa,"[7]; 2 hours, GN370 4 μg/mL",3.5 Log10 CFU/mL
same,Log10 CFU/mL of P. aeruginosa,"[7]; 2 hours, GN370 20 μg/mL",1.6 Log10 CFU/mL
same,Log10 CFU/mL of P. aeruginosa,"[7]; 2 hours, GN370 50 μg/mL",1.6 Log10 CFU/mL
same,Log10 CFU/mL of P. aeruginosa,"[7]; 2 hours, GN370 100 μg/mL",1.6 Log10 CFU/mL
same,Log10 CFU/mL of P. aeruginosa,"[7]; 2 hours, GN370 200 μg/mL",1.6 Log10 CFU/mL
same,Log10 CFU/mL of P. aeruginosa,"[7]; 4 hours, GN370 4 μg/mL",4.7 Log10 CFU/mL
